Measurements published in PMC6902050, “OXA-830, a Novel Chromosomally Encoded Extended-Spectrum Class D β-Lactamase in Aeromonas simiae” (Frontiers in Microbiology, 2019).

Assays:
OXA-830 = molecular target: T1, OXA-830 (Aeromonas simiae, UniProt A0A5K1KBV9); assay: inhibition of benzylpenicillin hydrolysis, UV-VIS spectrophotometry; type: biochemical
T1 construct: gene blaOXA; predicted signal peptide cleavage 22/23

[1] = system: CC(C)(O/N=C(\C(=O)N[C@@H]1C(=O)N2C(C(=O)[O-])=C(C[n+]3ccccc3)CS[C@H]12)c1csc(N)n1)C(=O)O; assay: initial hydrolysis rates, UV-VIS spectrophotometry, Michaelis-Menten fit; type: biochemical, Aeromonas simiae; settings: 10 mM phosphate buffer pH 7.0, 30°C
Description: (§1) initial hydrolysis rates, UV-VIS spectrophotometry, Michaelis-Menten fit on OXA-830

[2] = system: CCN1CCN(C(=O)N[C@@H](C(=O)N[C@@H]2C(=O)N3[C@@H]2SC(C)(C)[C@@H]3C(=O)O)c2ccccc2)C(=O)C1=O; assay: as above; type: biochemical, Aeromonas simiae; settings: 10 mM phosphate buffer pH 7.0, 30°C
Description: as §1

[3] = system: CC1(C)S[C@@H]2[C@H](NC(=O)Cc3ccccc3)C(=O)N2[C@H]1C(=O)O; assay: as above; type: biochemical, Aeromonas simiae; settings: 10 mM phosphate buffer pH 7.0, 30°C
Description: as §1

[4] = system: Cc1onc(-c2ccccc2)c1C(=O)N[C@@H]1C(=O)N2[C@@H]1SC(C)(C)[C@@H]2C(=O)O; assay: as above; type: biochemical, Aeromonas simiae; settings: 10 mM phosphate buffer pH 7.0, 30°C
Description: as §1

[5] = system: CC1(C)S[C@@H]2[C@H](NC(=O)[C@H](C(=O)O)c3ccsc3)C(=O)N2[C@H]1C(=O)O; assay: as above; type: biochemical, Aeromonas simiae; settings: 10 mM phosphate buffer pH 7.0, 30°C
Description: as §1

[6] = system: CO[C@@]1(NC(=O)Cc2cccs2)C(=O)N2C(C(=O)O)=C(COC(N)=O)CS[C@@H]21; assay: as above; type: biochemical, Aeromonas simiae; settings: 10 mM phosphate buffer pH 7.0, 30°C
Description: as §1

[7] = system: Cc1nnc(SCC2=C(C(=O)O)N3C(=O)[C@@H](NC(=O)Cn4cnnn4)[C@H]3SC2)s1; assay: as above; type: biochemical, Aeromonas simiae; settings: 10 mM phosphate buffer pH 7.0, 30°C
Description: as §1

[8] = system: Cc1onc(-c2ccccc2Cl)c1C(=O)N[C@@H]1C(=O)N2[C@@H]1SC(C)(C)[C@@H]2C(=O)O; assay: as above; type: biochemical, Aeromonas simiae; settings: 10 mM phosphate buffer pH 7.0, 30°C
Description: as §1

[9] = system: CC1(C)S[C@@H]2[C@H](NC(=O)[C@H](N)c3ccccc3)C(=O)N2[C@H]1C(=O)O; assay: as above; type: biochemical, Aeromonas simiae; settings: 10 mM phosphate buffer pH 7.0, 30°C
Description: as §1

T1 sequence (A0A5K1KBV9 entry or part of it): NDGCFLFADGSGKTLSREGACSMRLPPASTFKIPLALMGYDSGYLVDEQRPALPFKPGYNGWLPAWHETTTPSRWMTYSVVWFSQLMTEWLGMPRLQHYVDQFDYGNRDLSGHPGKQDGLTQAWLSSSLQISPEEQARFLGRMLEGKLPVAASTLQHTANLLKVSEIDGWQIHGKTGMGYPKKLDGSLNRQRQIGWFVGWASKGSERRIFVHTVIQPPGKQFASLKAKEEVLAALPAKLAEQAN

**Q.** For `C[C@]1(Cn2ccnn2)[C@H](C(=O)O)N2C(=O)C[C@H]2S1(=O)=O` [tazobactam], which IC50 (OXA-830) is on record?
**A.** 70 ± 20 nM

**Q.** For `O=C(O)[C@H]1/C(=C/CO)O[C@@H]2CC(=O)N21` [clavulanic acid], which IC50 (OXA-830) is on record?
**A.** 260 ± 20 nM

**Q.** Which Km [1] does the source give for OXA-830 (Aeromonas simiae) here?
**A.** 61 µM

**Q.** What about the kcat [1] of the same compound?
**A.** 2.04 s⁻¹

**Q.** What about the kcat/Km [1] of the same compound?
**A.** 33000 M⁻¹ s⁻¹

**Q.** What about the Km [2] of the same compound?
**A.** 233 µM

**Q.** What about the kcat [2] of the same compound?
**A.** 413 s⁻¹

**Q.** What about the kcat/Km [2] of the same compound?
**A.** 1.77e+06 M⁻¹ s⁻¹

**Q.** And the Km [3]?
**A.** 540 µM

**Q.** And the kcat [3]?
**A.** 527 s⁻¹

**Q.** And the kcat/Km [3]?
**A.** 980000 M⁻¹ s⁻¹

**Q.** And the Km [4]?
**A.** 722 µM

**Q.** What about the kcat [4] of the same compound?
**A.** 1240 s⁻¹

**Q.** And the kcat/Km [4]?
**A.** 1.72e+06 M⁻¹ s⁻¹

**Q.** What about the Km [5] of the same compound?
**A.** 208 µM

**Q.** What about the kcat [5] of the same compound?
**A.** 227 s⁻¹

**Q.** What about the kcat/Km [5] of the same compound?
**A.** 1.09e+06 M⁻¹ s⁻¹

**Q.** What about the Km [6] of the same compound?
**A.** 76 µM

**Q.** What about the kcat [6] of the same compound?
**A.** 2.79 s⁻¹

**Q.** And the kcat/Km [6]?
**A.** 37000 M⁻¹ s⁻¹

**Q.** And the Km [7]?
**A.** 975 µM

**Q.** And the kcat [7]?
**A.** 715 s⁻¹

**Q.** What about the kcat/Km [7] of the same compound?
**A.** 730000 M⁻¹ s⁻¹

**Q.** And the Km [8]?
**A.** 737 µM

**Q.** And the kcat [8]?
**A.** 1030 s⁻¹

**Q.** What about the kcat/Km [8] of the same compound?
**A.** 1.4e+06 M⁻¹ s⁻¹

**Q.** What about the Km [9] of the same compound?
**A.** 188 µM

**Q.** And the kcat [9]?
**A.** 444 s⁻¹

**Q.** And the kcat/Km [9]?
**A.** 2.36e+06 M⁻¹ s⁻¹

**Q.** For `CC1(C)[C@H](C(=O)O)N2C(=O)C[C@H]2S1(=O)=O` [sulbactam], which IC50 (OXA-830) is on record?
**A.** 50 ± 10 nM
